# In patent publication US20090118481A1:
# Target: LS-Rg, chimeric protein of the extracellular domain of human L-selectin joined to the Fc domain of a human G2 immunoglobulin (human) (UniProt P14151)
# Assay: competition of unlabeled antibody with radio-labeled 2'-F RNA ligand LF1807 for purified LS-Rg
# Sequence of LS-Rg, chimeric protein of the extracellular domain of human L-selectin joined to the Fc domain of a human G2 immunoglobulin (human) (P14151 39-332, change not shown): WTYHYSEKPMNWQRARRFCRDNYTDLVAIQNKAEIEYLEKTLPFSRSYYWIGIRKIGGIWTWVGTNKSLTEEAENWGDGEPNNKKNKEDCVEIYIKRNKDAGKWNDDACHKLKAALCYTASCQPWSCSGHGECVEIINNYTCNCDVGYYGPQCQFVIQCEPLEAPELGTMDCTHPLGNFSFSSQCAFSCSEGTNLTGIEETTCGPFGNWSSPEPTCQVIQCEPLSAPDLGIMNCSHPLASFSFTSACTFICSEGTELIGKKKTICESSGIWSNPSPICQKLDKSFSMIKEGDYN
substance,measurement,value
"DREG-56, blocking monoclonal anti-L-selectin antibody",concentration giving complete inhibition,300 nM
